PMC5356071

Target: Zika virus envelope (E) glycoprotein, strain H/PF/2013 (French Polynesia), on mature infectious virions (Zika virus strain H/PF/2013, French Polynesia)
Assay: cryo-EM structure; mature ZIKV H/PF/2013 particles incubated with ZIKV-117 Fab at 4 °C for 2–3 h, flash-frozen on lacey carbon grids; icosahedral reconstruction at 6.2 Å; E dimer (PDB 5IRE) and Fab domains (ZV-67, PDB 5KVG) fitted; occupancies by EMfit

B1: ZIKV-117 Fab (Fab fragment of the human monoclonal antibody ZIKV-117) (Fab, V domains shown)
VH: QVQLVESGGGVVRPGGSLRLSCAASGFTFKNYGIHWVRQAPGKGPEWVAFVRYDGNNKYYADSVKGRFTISRDNAKNTLSLQMNSLRVEDTAVYFCARDPETFGGFDYWGQGTLVTVSS
VL: ETVMTQSPATLSVSPGERGTLSCRASESVSSNLAWYQQKPGKAPRLLIYGASTRATGIPDRFSGSGSGTEFTLTISSLQSEDFAVYYCQQYYYSPRTFGQGTKVEVK
  Fabs bound per virion at saturation (Fabs per virion (180 sites)): 60
  Fabs per virion at the 2f sites (Fabs per virion): 21
  Fabs per virion at the 3f sites (Fabs per virion): 35
  occupancy at the 2f site (average Fab density relative to E protein density): 35%
  occupancy at the 3f site (average Fab density relative to E protein density): 58%
